According to patent US20130345129A1 (OTSUKA CHEMICAL, published 2013):
No end group written: not given here. asialo oligosaccharide = asialo (digalactose) oligosaccharide chain

Biological target: T1, mouse GLP-1 receptor (mouse, UniProt O35659 22-463)
T1 sequence (looked up): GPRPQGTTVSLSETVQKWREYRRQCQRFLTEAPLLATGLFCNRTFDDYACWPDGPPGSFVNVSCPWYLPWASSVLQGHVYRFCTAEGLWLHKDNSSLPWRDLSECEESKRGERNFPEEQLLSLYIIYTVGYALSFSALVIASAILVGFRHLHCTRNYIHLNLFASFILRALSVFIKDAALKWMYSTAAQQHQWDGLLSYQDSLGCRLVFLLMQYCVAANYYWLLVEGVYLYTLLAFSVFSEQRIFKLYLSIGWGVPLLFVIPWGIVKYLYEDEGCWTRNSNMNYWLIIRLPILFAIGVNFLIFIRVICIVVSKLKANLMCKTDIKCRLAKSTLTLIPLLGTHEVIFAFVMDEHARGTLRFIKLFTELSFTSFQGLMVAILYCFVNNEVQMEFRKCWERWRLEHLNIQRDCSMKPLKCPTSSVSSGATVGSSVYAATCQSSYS
Assay: cell-based or functional assay

B1: 18Cys GLP-1-disialo (peptide)
peptide: HAEGTFTSDVSC(disialo oligosaccharide)YLEGQAAKEFIAWLVKGRG
With B1 the “Relative Activity (cAMP synthesis, EC50 relative to GLP-1 = 1)” value (“Relative Activity” below) was < 0.1 relative (GLP-1 = 1).

B2: 20Cys GLP-1-disialo (peptide)
peptide: HAEGTFTSDVSSYC(disialo oligosaccharide)EGQAAKEFIAWLVKGRG
B2 was tested, and the “Relative Activity” value was < 0.1 relative (GLP-1 = 1).

B3: 22Cys GLP-1-disialo (peptide)
peptide: HAEGTFTSDVSSYLEC(disialo oligosaccharide)QAAKEFIAWLVKGRG
In the case of B3, the “Relative Activity” value is reported as 1 relative (GLP-1 = 1).

B4: 24Cys GLP-1-disialo (peptide)
peptide: HAEGTFTSDVSSYLEGQC(disialo oligosaccharide)AKEFIAWLVKGRG
B4 was tested, and the “Relative Activity” value was < 0.1 relative (GLP-1 = 1).

B5: 25Cys GLP-1-disialo (peptide)
peptide: HAEGTFTSDVSSYLEGQAC(disialo oligosaccharide)KEFIAWLVKGRG
In the case of B5, the “Relative Activity” value is reported as < 0.1 relative (GLP-1 = 1).

B6: 26Cys GLP-1-disialo (peptide)
peptide: HAEGTFTSDVSSYLEGQAAC(disialo oligosaccharide)EFIAWLVKGRG
In the case of B6, the “Relative Activity” value is reported as 0.2 relative (GLP-1 = 1).

B7: 27Cys GLP-1-disialo (peptide)
peptide: HAEGTFTSDVSSYLEGQAAKC(disialo oligosaccharide)FIAWLVKGRG
With B7 the “Relative Activity” value was 0.2 relative (GLP-1 = 1).

B8: 28Cys GLP-1-disialo (peptide)
peptide: HAEGTFTSDVSSYLEGQAAKEC(disialo oligosaccharide)IAWLVKGRG
For B8, the “Relative Activity” value was < 0.1 relative (GLP-1 = 1).

B9: 30Cys GLP-1-disialo (peptide)
peptide: HAEGTFTSDVSSYLEGQAAKEFIC(disialo oligosaccharide)WLVKGRG
With B9 the “Relative Activity” value was 0.6 relative (GLP-1 = 1).

B10: 32Cys GLP-1-disialo (peptide)
peptide: HAEGTFTSDVSSYLEGQAAKEFIAWC(disialo oligosaccharide)VKGRG
For B10, the “Relative Activity” value was < 0.1 relative (GLP-1 = 1).

B11: 6Cys GLP-1-disialo (peptide)
peptide: CHAEGTFTSDVSSYLEGQAAKEFIAWLVKGRG
modifications: disialo oligosaccharide chain added Cys at position 6 (added before 7His; chain attached to Cys with bromoacetamidyl disialo oligosaccharide)
In the case of B11, the “Relative Activity” value is reported as < 0.1 relative (GLP-1 = 1).

B12: 34Cys GLP-1-disialo (peptide)
peptide: HAEGTFTSDVSSYLEGQAAKEFIAWLVC(disialo oligosaccharide)GRG
B12 was tested, and the “Relative Activity” value was 0.7 relative (GLP-1 = 1).

B13: 36Cys GLP-1-disialo (peptide)
peptide: HAEGTFTSDVSSYLEGQAAKEFIAWLVKGC(disialo oligosaccharide)G
B13 was tested, and the “Relative Activity” value was 1.9 relative (GLP-1 = 1).

B14: 38Cys GLP-1-disialo (peptide)
peptide: HAEGTFTSDVSSYLEGQAAKEFIAWLVKGRGC
modifications: disialo oligosaccharide chain added Cys at position 38 (added after 37Gly)
For B14, the “Relative Activity” value was 1.9 relative (GLP-1 = 1).

B15: 26Cys GLP-1-asialo (peptide)
peptide: HAEGTFTSDVSSYLEGQAAC(asialo oligosaccharide)EFIAWLVKGRG
With B15 the “Relative Activity” value was 0.8 relative (GLP-1 = 1).

B16: 34Cys GLP-1-asialo (peptide)
peptide: HAEGTFTSDVSSYLEGQAAKEFIAWLVC(asialo oligosaccharide)GRG
With B16 the “Relative Activity” value was 2.2 relative (GLP-1 = 1).

B17: 8Cys GLP-1-disialo (peptide)
peptide: HC(disialo oligosaccharide)EGTFTSDVSSYLEGQAAKEFIAWLVKGRG
For B17, the “Relative Activity” value was < 0.1 relative (GLP-1 = 1).

B18: 9Cys GLP-1-disialo (peptide)
peptide: HAC(disialo oligosaccharide)GTFTSDVSSYLEGQAAKEFIAWLVKGRG
For B18, the “Relative Activity” value was < 0.1 relative (GLP-1 = 1).

B19: 10Cys GLP-1-disialo (peptide)
peptide: HAEC(disialo oligosaccharide)TFTSDVSSYLEGQAAKEFIAWLVKGRG
For B19, the “Relative Activity” value was < 0.1 relative (GLP-1 = 1).

B20: 11Cys GLP-1-disialo (peptide)
peptide: HAEGC(disialo oligosaccharide)FTSDVSSYLEGQAAKEFIAWLVKGRG
In the case of B20, the “Relative Activity” value is reported as < 0.1 relative (GLP-1 = 1).

B21: 12Cys GLP-1-disialo (peptide)
peptide: HAEGTC(disialo oligosaccharide)TSDVSSYLEGQAAKEFIAWLVKGRG
For B21, the “Relative Activity” value was < 0.1 relative (GLP-1 = 1).

B22: 14Cys GLP-1-disialo (peptide)
peptide: HAEGTFTC(disialo oligosaccharide)DVSSYLEGQAAKEFIAWLVKGRG
In the case of B22, the “Relative Activity” value is reported as < 0.1 relative (GLP-1 = 1).

B23: 16Cys GLP-1-disialo (peptide)
peptide: HAEGTFTSDC(disialo oligosaccharide)SSYLEGQAAKEFIAWLVKGRG
In the case of B23, the “Relative Activity” value is reported as < 0.1 relative (GLP-1 = 1).
